Assay [1] addresses T1, mu opioid receptor (rat, UniProt P33535).
T1 chain: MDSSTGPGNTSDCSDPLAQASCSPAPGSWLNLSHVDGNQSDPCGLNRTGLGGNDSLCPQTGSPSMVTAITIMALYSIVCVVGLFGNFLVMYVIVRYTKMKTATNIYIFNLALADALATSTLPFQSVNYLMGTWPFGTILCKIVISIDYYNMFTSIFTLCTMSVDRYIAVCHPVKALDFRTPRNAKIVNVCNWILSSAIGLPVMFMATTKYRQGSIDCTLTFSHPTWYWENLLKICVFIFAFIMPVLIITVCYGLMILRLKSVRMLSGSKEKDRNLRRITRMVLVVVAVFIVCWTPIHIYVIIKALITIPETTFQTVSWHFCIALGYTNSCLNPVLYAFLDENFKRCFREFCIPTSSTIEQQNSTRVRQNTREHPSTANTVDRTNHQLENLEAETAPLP
In words: competition, radioligand, 25C.

The target of assay [2] is T2, delta opioid receptor (rat, UniProt P33533).
T2 chain: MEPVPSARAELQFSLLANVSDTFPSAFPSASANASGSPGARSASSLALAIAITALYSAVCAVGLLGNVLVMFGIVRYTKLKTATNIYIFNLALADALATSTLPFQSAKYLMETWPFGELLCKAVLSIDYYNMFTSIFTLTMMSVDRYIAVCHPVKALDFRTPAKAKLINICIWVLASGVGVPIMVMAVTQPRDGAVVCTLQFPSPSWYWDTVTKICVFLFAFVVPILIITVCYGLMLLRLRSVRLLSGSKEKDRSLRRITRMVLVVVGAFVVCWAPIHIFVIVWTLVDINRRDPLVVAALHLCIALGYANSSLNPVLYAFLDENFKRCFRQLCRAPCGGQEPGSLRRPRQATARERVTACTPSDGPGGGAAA
Briefly: competition, radioligand, 25C.

Square brackets hold non-standard residues; d marks the D form. Ends that are not written are not given here.

On to YG[dF]C-NH2 (also: rhenium complex) [Tyr-Gly-D-Phe-Cys-NH2], for which the binding result in assay [1] and in assay [2] was “no binding” each time.

As for YC[dF]G-NH2 (also: rhenium complex) [Tyr-Cys-D-Phe-Gly-NH2], the binding result in assay [1] and in assay [2] was “no binding” in each case.
